Measured values reported in US20180000768A1, “INTESTINAL FXR AGONISM ENHANCES GLP-1 SIGNALING TO RESTORE PANCREATIC BETA CELL FUNCTIONS” (Salk Institute for Biological Studies, priority 2015, published 2018).

How the values were obtained:
[1] = tested on: isolated islets; assay: gene expression after direct ex vivo treatment of isolated islets; type: cell-based, mouse; conditions: 24 hours ex vivo, XL335 1 μM, Fex 1 μM
Protocol: Leptin-deficient ob/ob mice were treated daily with vehicle, Fex, or the analogue Fex-D (50 mg/kg) via P.O. for 14 days (A) Chemical structures of fexaramine and Fex-D (B) Schematic of the experimental design (C) Serum glucose levels (D) Glucose tolerance test (E) Insulin secretion in vivo (F) GLP-1 secretion in vivo (G) Heatmap showing hierarchal clustering of gene expression changes in islet induced by Fex (100 mg/kg, 4 wks) and FexD (50 mg/kg, 2 weeks) treatment in ob/ob mice (in vivo); by treatment of islets with XL335 (1 μM), Fex (1 μM), mFgf15 and hFgf19 (24 hours ex vivo); and mFgf15 (0.15 mg/kg, 2 weeks) and INT777 (Tgr5, 60 mg/kg, 4 weeks) treatment of ob/ob mice (in vivo). Gene expression was measured by RNA-Seq and changes are expressed as Z-score. (H) Ven diagram of changes in gene expression in pancreatic islets induced by FEX (100 mg/kg for 5 weeks) and FEX-D (50 mg/kg for 14 days). […] Data represent the mean±STD. Statistical analysis was performed with the Student's t test. *p<0.05, **p<0.01.
Next, primary islets were isolated from mice treated by Fex-D to compare gene expression changes.

[2] = tested on: ob/ob mice; assay: gene expression (RNA-Seq, QPCR) in tissues of treated ob/ob mice; type: in vivo, mouse; conditions: FGF15 injection
Protocol: Total RNA was isolated from cell pellets treated with RNAlater using the RNA mini kit (Qiagen) and treated with DNaseI (Qiagen) for 30 minutes at room temperature. Sequencing libraries were prepared from 100-500 ng total RNA using the TruSeq RNA Sample Preparation Kit v2 (Illumina) according to the manufacturer's protocol. Briefly, mRNA was purified, fragmented, and used for first-, then second-strand cDNA synthesis followed by adenylation of 3′ ends. Samples were ligated to unique adapters and subjected to PCR amplification. Mulitplexed libraries were then validated using the 2100 BioAnalyzer (Agilent), normalized, and pooled for sequencing. RNA-Seq libraries prepared from two biological replicates for each experimental condition were sequenced on the Illumina HiSeq 2500 using bar-coded multiplexing and a 100 bp read length.
Image analysis and base calling were performed with Illumina CASAVA-1.8.2. This yielded a median of 29.9M usable reads per sample. Short read sequences were mapped to a UCSC mm9 reference sequence using the RNA-seq aligner STAR. Known splice junctions from mm9 were supplied to the aligner and de novo junction discovery was also permitted. […] Transcript expression was calculated as gene-level relative abundance in fragments per kilobase of exon model per million mapped fragments and employed correction for transcript abundance bias. […]

[3] = tested on: Leptin-deficient ob/ob mice; assay: metabolic phenotype and glucose homeostasis of treated ob/ob mice; type: in vivo, mouse; conditions: FGF15 treatment for 2 weeks
Protocol: Leptin-deficient ob/ob mice were purchased from Jackson laboratory (stock no. 000632). Each mouse consumed 100 mg per kg of body weight Fex (in corn oil) per day by oral gavage for 5 weeks. For in vivo analog study, each mouse consumed 50 mg per kg of body weight Fex-D (in corn oil) per day by oral gavage for 14 days. For GLP-1 receptor antagonist study, each mouse was daily treated with 100 μg per kg of body weight Exendin 9-39 amide (Abcam) via intraperitoneal injection for 2 weeks. For INT-777 study, each mouse was daily gavaged with 60 mg per kg of body weight INT-777 (in corn oil) for 5 weeks. […] Core body temperature was measured with a clinical rectal thermometer (Thermalert model TH-5; Physitemp). […] Tail blood was drawn at indicated time intervals, and blood glucose level was measured with a One Touch Ultra glucometer (LifeScan). Body composition was measured with Echo MRI-100 body composition analyzer (Echo Medical Systems). […]
Real-time metabolic analyses were conducted in a Comprehensive Lab Animal Monitoring System (Columbus Instruments). CO2 production, O2 consumption, RQ (relative rates of carbohydrate versus fat oxidation) and ambulatory counts were determined for 4 consecutive days and nights, with at least 24-h for adaptation before data recording. […]

B1: FGF15: FGF15 protein injected in ob/ob mice or applied to islets (protein, UniProt O35622 26-218, looked up)
Fibroblast growth factor 15: RPLAQQSQSVSDEDPLFLYGWGKITRLQYLYSAGPYVSNCFLRIRSDGSVDCEEDQNERNLLEFRAVALKTIAIKDVSSVRYLCMSADGKIYGLIRYSEEDCTFREEMDCLGYNQYRSMKHHLHIIFIQAKPREQLQDQKPSNFIPVFHRSFFETGDQLRSKMFSLPLESDSMDPFRMVEDVDHLVKSPSFQK
transcriptional changes seen in islets in vivo with Fex and Fex-D [1]: not observed | reg family gene expression in islets [2]: upregulated | blood glucose levels [3]: significantly reduced | glucose uptake in the skeletal muscle ([3]; soleus): without affecting
